Assay results from PMC5013695.

Target: 14-3-3β (UniProt Q9CQV8)
Test: co-IP with anti-FLAG beads, 14-3-3β blot
Conditions: reference: FLAG-Bmal1 wild type; sites S42

Sequence of UniProt Q9CQV8 (Q9CQV8 whole entry, looked up): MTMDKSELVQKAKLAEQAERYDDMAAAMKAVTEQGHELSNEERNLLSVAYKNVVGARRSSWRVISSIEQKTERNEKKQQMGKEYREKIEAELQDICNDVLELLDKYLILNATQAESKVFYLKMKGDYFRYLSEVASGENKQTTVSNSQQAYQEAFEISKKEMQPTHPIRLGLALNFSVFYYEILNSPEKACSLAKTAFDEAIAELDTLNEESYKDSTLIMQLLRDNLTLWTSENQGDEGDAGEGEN

Bmal1 (from UniProt Q9WTL8-4) FLAG-Bmal1 S42A
binding against the reference: weaker
